Data reported in US20030161791A1, “Water-soluble polymer conjugates of retinoic acid” (priority 2001, published 2003).

What was measured:
[1] = Recovery of ATRA and conjugate in plasma and lung tissue after intratracheal instillation in male rats; type: in vivo, Sprague Dawley Rats
Description: The following study in rats was conducted to determine plasma and lung tissue concentrations of non-PEGylated all-trans retinoic acid (ATRA control) versus a PEGylated all-trans retinoic acid, mPEG (5 kD)ATRA Ester Conjugate, after intratracheal instillation to male rats.
Animals: Hilltop Lab Animals Inc (P.O. Box 183, Scottdale, Pa. 15683) supplied pre-cannulated jugular vein catheter [JVC]) Sprague Dawley Rats (350-375 grams). The test system included 2 male rats randomly chosen for each of the 6 test groups.
ATRA and PEG-ATRA Samples: Non-PEGylated All-Trans Retinoic Acid was supplied as a powder containing 50% ATRA by weight (Control Article). The powder was stored at −20° C. and protected from light. Methoxy PEG (5 kD) ATRA ester conjugate (Test Article) was provided as a powder containing 5% ATRA by weight which was stored at −20° C. and protected from light.
ATRA Stock Solution/Control (2.0 mg/ml Stock): 3.0 mL of PBS was added to 6.0 mg of the ATRA powder. This solution was dosed as a suspension to the rats after sonication and vortexing.
Methoxy PEG (5 kD) ATRA ester conjugate (20.0 mg/mL Stock): 3.0 mL of PBS was added to 60.0 mg of the methoxy PEG (5 kD) ATRA ester conjugate powder.
Intratracheal Instillation: Administration of the control and test articles was achieved by intratracheal instillation under yellow lighting. The rats were lightly anesthetized using inhaled 3.0-5.0% isoflurane mixed with oxygen in a plexiglass anesthesia chamber. The dose was administered by inserting a gavage needle fitted with a 1 mL syringe into the mouth of the rat down the trachea to just above the carina. The dose was administered into the lungs utilizing this method, and then the gavage needle was removed. The animal was placed back in its cage and allowed to recover from the anesthesia on its own after the dosing procedure.
Rats were dosed IT with 354 μg (1.2 μmole) of RA or […] (1 μmole) ATRA equivalent of mPEG5K-ATRA.
Blood Collection: Predose blood samples of approximately 3.0 ml were collected from the jugular vein catheter into heparinized plasma tubes. At the designated sacrifice time for each animal a surgical plane of anesthesia was induced by using inhaled 3.0-5.0% isofluorane mixed with oxygen. […]
ATRA and PEG-ATRA were extracted from whole rat lung by first weighing and transferring the rat lung to an amber vial and cutting the lung into small pieces. […] The sample was then analyzed by HPLC.
Sample Analysis: Plasma and lung tissue samples were analyzed for all-trans retinoic acid concentrations by reverse-phase high performance liquid chromatography (HPLC) procedures for the lung tissue and by a liquid chromatography tandem mass spectrophotometer (LC-MS-MS) technique for the plasma samples. […]

[2] = Hydrolysis rate of PEG-ATRA ester conjugate in phosphate buffer; type: physicochemical; conditions: phosphate buffer 0.1M, pH 7.0, 0.5 wt %, pseudo-first-order kinetics
Description: The rate of hydrolysis in buffer of an exemplary PEG-ATRA conjugate in accordance with the invention was determined at two different temperatures, room temperature and body temperature.
MPEG 5 kDa ATRA (see Example 1) was dissolved in phosphate buffer (0.1M, pH 7.0) at a concentration of 0.5 wt % at temperatures of 23° C. and 37° C. At timed intervals, aliquots were removed for analysis by analytical reverse phase HPLC. The hydrolysis half-lives were obtained using pseudo-first-order kinetics. […] Thus, these conjugates can be characterized as water-soluble prodrugs forms of the retinoid.

[3] = Stability (degradation) of PEG-retinoid compositions versus unmodified parent retinoid; type: physicochemical; conditions: without free radical scavenger
Description: Additionally, a composition in accordance with the invention will preferably contain a free radical scavenger such as butylatedhydroxytoluene (BHT), ascorbic acid (vitamin C), or alpha tocopherol […]. […] Incorporation of a free radical scavenger in the composition was effective to substantially reduce or effectively eliminate free-radical induced degradation of the conjugate.

| Compound | concentration at 1 h ([1]; male, Sprague Dawley, other: intratracheal instillation, 354 μg, rat plasma, one-hour timepoint, LC-MS-MS, read-out: plasma retinoic acid (ATRA) concentration) | retention in the lung compared with pegylated / unmodified counterpart ([1]; rat, lung tissue (FIG. 3)) | half-life (t 1/2) of the hydrolysis ([2]; 23° C.) | half-life (t 1/2) of the hydrolysis ([2]; 37° C.) | plasma retinoic acid (ATRA) concentration ([1]; rat plasma, one-hour timepoint, LC-MS-MS) | retained in the lung ([1]; rat, for at least up to 2 hours post administration, HPLC of lung tissue) | stability of the composition relative to compositions of the unmodified parent retinoid [3] |
| --- | --- | --- | --- | --- | --- | --- | --- |
| CC1=C(/C=C/C(C)=C/C=C/C(C)=C/C(=O)O)C(C)(C)CCC1 [ATRA, all trans retinoic acid, reference compound] | ~0.145 µg/mL | to a lesser degree | – | – | – | – | – |
| mPEG (5 kDa) ATRA Ester Conjugate [Example 1] | – | – | about 3500 hours | about 877 hours | approximately 65 ng/ml | greater than 70 % of the dose | more prone to degradation |
